In PMC9482650, “Quantitative fragmentomics allow affinity mapping of interactomes” (Nature Communications, 2022):

What was measured:
Test in all cases: holdup assay
Design in all cases: key: below the threshold = too weak to quantify, mostly under pKd 3.1 to 4
Settings in all cases: plain residues with an end cap or a label only (N-terminal biotin on a linker: ttds)
[1] = biological target: T1, GRIP1_5, Q9Y3R0
T1 sequence (Q9Y3R0 568-668, limits assumed, looked up): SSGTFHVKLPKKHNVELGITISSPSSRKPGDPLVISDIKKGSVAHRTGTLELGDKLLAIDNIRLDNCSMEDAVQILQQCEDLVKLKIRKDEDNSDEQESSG

[2] = biological target: T2, TIAM2, Q8IVF5
T2 sequence (Q8IVF5 885-986, limits assumed, looked up): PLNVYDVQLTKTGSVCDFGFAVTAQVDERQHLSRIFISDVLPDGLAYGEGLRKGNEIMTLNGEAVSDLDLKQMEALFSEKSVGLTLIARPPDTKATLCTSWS

[3] = biological target: T3, TX1BP3, O14907
T3 sequence (O14907 10-122, limits assumed, looked up): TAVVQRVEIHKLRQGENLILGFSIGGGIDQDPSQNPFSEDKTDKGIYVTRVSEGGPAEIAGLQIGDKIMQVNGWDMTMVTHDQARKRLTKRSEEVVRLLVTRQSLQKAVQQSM

[4] = biological target: FRMPD2_1, Q68DX3
Chain of FRMPD2_1, Q68DX3 (Q68DX3 770-861): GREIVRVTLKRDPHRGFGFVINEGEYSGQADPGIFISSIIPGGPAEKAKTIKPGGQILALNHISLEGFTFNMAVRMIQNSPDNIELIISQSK

[5] = biological target: T4, SNTG2, Q9NY99
T4 sequence (Q9NY99 68-166, limits assumed, looked up): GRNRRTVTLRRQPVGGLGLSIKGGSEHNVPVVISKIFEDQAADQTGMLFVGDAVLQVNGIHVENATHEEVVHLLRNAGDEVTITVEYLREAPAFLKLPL

[6] = biological target: IL16_1, Q14005
Chain of IL16_1, Q14005 (Q14005 210-306): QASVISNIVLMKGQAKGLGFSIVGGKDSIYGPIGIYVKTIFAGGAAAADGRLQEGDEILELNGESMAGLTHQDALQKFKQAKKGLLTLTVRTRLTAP

[7] = biological target: T5, NHERF3_4, Q5T2W1
T5 sequence (Q5T2W1 373-468, limits assumed, looked up): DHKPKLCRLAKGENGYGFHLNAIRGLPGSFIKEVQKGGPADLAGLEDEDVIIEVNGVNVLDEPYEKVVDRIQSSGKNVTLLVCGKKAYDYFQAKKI

[8] = biological target: T6, LNX2_2, Q8N448
T6 sequence (Q8N448 334-432, limits assumed, looked up): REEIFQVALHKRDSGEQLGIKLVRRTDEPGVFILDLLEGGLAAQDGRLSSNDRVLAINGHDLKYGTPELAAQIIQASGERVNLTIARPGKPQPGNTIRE

[9] = biological target: MAGI2_3, Q86UL8
Chain of MAGI2_3, Q86UL8 (Q86UL8 600-682): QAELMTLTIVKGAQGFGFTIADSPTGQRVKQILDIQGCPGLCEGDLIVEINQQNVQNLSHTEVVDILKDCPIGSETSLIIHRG

[10] = biological target: TJP1_2, Q07157
Chain of TJP1_2, Q07157 (Q07157 181-274): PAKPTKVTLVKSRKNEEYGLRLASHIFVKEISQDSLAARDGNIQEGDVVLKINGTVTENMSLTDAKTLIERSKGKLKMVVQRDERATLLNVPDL

[11] = biological target: T7, SNTG1, Q9NSN8
T7 sequence (Q9NSN8 52-150, limits assumed, looked up): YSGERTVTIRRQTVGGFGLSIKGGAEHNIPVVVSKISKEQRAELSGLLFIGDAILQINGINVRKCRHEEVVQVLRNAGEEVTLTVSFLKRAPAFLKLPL

[12] = biological target: SCRIB_2, Q14160
Chain of SCRIB_2, Q14160 (Q14160 857-960): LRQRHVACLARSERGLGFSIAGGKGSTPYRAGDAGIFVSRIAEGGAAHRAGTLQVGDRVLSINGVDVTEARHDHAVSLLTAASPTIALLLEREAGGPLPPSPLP

[13] = biological target: MAGI2_2, Q86UL8
Chain of MAGI2_2, Q86UL8 (Q86UL8 410-522): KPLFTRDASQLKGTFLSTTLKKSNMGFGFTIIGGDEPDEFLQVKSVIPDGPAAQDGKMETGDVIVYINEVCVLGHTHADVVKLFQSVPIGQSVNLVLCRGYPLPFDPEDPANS

[14] = biological target: T8, MPDZ_12, O75970
T8 sequence (O75970 1857-1958, limits assumed, looked up): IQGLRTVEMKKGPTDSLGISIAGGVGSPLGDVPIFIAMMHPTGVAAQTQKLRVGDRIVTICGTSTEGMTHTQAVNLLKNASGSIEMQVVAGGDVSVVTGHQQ

[15] = biological target: NOS1, P29475
Chain of NOS1, P29475 (P29475 9-101): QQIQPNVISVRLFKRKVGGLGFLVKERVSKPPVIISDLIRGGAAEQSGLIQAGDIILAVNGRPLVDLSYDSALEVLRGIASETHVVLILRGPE

[16] = biological target: DLG4_3, P78352
Chain of DLG4_3, P78352 (P78352 306-403): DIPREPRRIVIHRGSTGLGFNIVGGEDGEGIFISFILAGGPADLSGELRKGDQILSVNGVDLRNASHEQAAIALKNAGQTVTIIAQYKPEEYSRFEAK

[17] = biological target: FRMPD2_2, Q68DX3
Chain of FRMPD2_2, Q68DX3 (Q68DX3 944-1038): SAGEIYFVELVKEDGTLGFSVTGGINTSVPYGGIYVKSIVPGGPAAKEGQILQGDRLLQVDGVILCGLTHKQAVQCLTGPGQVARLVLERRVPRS

[18] = biological target: GRID2IP_1, A4D2P6
Chain of GRID2IP_1, A4D2P6 (A4D2P6 1-87): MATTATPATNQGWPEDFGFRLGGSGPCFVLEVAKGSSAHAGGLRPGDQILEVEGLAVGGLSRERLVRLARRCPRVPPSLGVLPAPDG

[19] = biological target: DLG5_1, Q8TDM6
Chain of DLG5_1, Q8TDM6 (Q8TDM6 617-713): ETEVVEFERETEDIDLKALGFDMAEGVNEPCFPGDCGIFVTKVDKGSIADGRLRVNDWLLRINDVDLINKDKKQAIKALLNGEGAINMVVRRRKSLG

[20] = biological target: MAGI2_5, Q86UL8
Chain of MAGI2_5, Q86UL8 (Q86UL8 915-1017): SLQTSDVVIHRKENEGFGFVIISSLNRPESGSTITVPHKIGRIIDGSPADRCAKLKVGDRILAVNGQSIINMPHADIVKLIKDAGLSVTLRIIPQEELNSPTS

[21] = biological target: SNX27, Q96L92
[22] = biological target: T9, PDZRN3_1, Q9UPQ7
T9 sequence (Q9UPQ7 244-349, limits assumed, looked up): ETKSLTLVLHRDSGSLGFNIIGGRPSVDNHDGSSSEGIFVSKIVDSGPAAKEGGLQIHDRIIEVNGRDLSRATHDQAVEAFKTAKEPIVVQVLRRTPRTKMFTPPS

[23] = biological target: DLG4_2, P78352
Chain of DLG4_2, P78352 (P78352 155-259): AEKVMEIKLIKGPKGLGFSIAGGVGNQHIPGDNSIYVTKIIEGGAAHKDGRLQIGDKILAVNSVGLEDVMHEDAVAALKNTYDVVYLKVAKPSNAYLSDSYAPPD

[24] = biological target: PARD3_3, Q8TEW0
Chain of PARD3_3, Q8TEW0 (Q8TEW0 582-685): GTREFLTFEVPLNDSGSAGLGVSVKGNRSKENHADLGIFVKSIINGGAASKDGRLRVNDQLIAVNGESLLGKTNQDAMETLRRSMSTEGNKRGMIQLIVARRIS

[25] = biological target: LDB3, O75112
Chain of LDB3, O75112 (O75112 1-94): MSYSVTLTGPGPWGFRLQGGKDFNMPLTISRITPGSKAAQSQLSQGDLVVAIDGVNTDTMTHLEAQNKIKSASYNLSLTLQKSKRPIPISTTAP

[26] = biological target: MAGI3_2, Q5TCQ9
Chain of MAGI3_2, Q5TCQ9 (Q5TCQ9 398-503): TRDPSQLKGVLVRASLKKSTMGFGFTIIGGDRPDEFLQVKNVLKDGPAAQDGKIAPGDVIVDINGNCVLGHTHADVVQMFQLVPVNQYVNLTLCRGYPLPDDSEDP

[27] = biological target: GRID2IP_2, A4D2P6
Chain of GRID2IP_2, A4D2P6 (A4D2P6 272-370): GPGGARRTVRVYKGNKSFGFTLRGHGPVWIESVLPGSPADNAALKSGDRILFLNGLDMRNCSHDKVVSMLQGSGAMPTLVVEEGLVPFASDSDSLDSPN

[28] = biological target: T10, SYNJ2BP, P57105
T10 sequence (P57105 8-110, limits assumed, looked up): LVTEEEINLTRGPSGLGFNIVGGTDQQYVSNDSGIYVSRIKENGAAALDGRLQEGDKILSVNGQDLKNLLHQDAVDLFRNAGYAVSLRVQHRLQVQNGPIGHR

B1: ARHGEF7, Q14155;Q14155-1 (peptide)
chain: NDPAWDETNL
[1]
  pKd: below the threshold
[2]
  pKd: below the threshold
[3]
  pKd: 5.76
[4]
  pKd: below the threshold
[5]
  pKd: 4.22
[6]
  pKd: below the threshold
[7]
  pKd: below the threshold
[8]
  pKd: below the threshold
[9]
  pKd: below the threshold
[10]
  pKd: below the threshold
[11]
  pKd: 4.26
[12]
  pKd: 4.68
[13]
  pKd: below the threshold
[14]
  pKd: below the threshold
[15]
  pKd: below the threshold
[16]
  pKd: below the threshold
[17]
  pKd: below the threshold
[18]
  pKd: below the threshold
[19]
  pKd: below the threshold
[20]
  pKd: below the threshold
[21]
  pKd: 5.66
[22]
  pKd: 3.92
[23]
  pKd: below the threshold
[24]
  pKd: 4.16
[25]
  pKd: below the threshold
[26]
  pKd: below the threshold

B2: PPP1R13L, Q8WUF5 (peptide)
chain: PRVKPQRSKV
[1]
  pKd: 3.65
[2]
  pKd: below the threshold
[27]
  pKd: 4.51
[3]
  pKd: 3.82
[4]
  pKd: below the threshold
[5]
  pKd: below the threshold
[6]
  pKd: below the threshold
[7]
  pKd: below the threshold
[8]
  pKd: below the threshold
[28]
  pKd: below the threshold
[9]
  pKd: below the threshold
[10]
  pKd: below the threshold
[11]
  pKd: below the threshold
[12]
  pKd: below the threshold
[13]
  pKd: 3.79
[14]
  pKd: below the threshold
[15]
  pKd: below the threshold
[16]
  pKd: below the threshold
[17]
  pKd: below the threshold
[18]
  pKd: below the threshold
[19]
  pKd: below the threshold
[20]
  pKd: below the threshold
[21]
  pKd: below the threshold
[22]
  pKd: below the threshold
[23]
  pKd: below the threshold
[24]
  pKd: below the threshold
[25]
  pKd: below the threshold
[26]
  pKd: 4.07

B3: HPV35-E6, P27228 (peptide)
chain: SKPTRRETEV
[1]
  pKd: below the threshold
[2]
  pKd: below the threshold
[27]
  pKd: below the threshold
[3]
  pKd: 4.93
[4]
  pKd: 3.49
[5]
  pKd: 3.95
[6]
  pKd: below the threshold
[7]
  pKd: below the threshold
[8]
  pKd: below the threshold
[28]
  pKd: 5.69
[9]
  pKd: below the threshold
[10]
  pKd: below the threshold
[11]
  pKd: 4.31
[12]
  pKd: 4.7
[13]
  pKd: 4.93
[14]
  pKd: below the threshold
[15]
  pKd: 3.74
[16]
  pKd: 5.2
[17]
  pKd: below the threshold
[18]
  pKd: below the threshold
[19]
  pKd: below the threshold
[20]
  pKd: 4.18
[21]
  pKd: 4.66
[22]
  pKd: 4.89
[23]
  pKd: 5.51
[24]
  pKd: below the threshold
[25]
  pKd: below the threshold
[26]
  pKd: 5.39
